According to patent US20220323583A1, “Pharmaceutical Formulations of Bi-Specific Diabodies and Use of the Same” (MacroGenics, Inc., priority 2019, published 2022):

Assays:
[1] = Capillary isoelectric focusing (cIEF), charge variants; format: physicochemical; details: for cIEF % AV (acidic variants) / cIEF % BV (basic variants) / cIEF % Main Peak: 0.1 mg/mL solution, Stabilizer 2
Protocol: cIEF analysis was performed to characterize drug product charge variants. The configuration included a iCE System with Alcott 720NV Autosampler. Samples were prepared to a final concentration of 0.1 mg/mL and centrifuged at 5±3° C. for 40 minutes prior to analysis.

[2] = system: Molm13; assay: Redirected killing of target cell line; format: cell-based
[3] = pH; format: physicochemical; details: for pH: normal saline IV bag with Stabilizer 2
[4] = Differential scanning calorimetry (DSC), thermal stability; format: physicochemical; details: DP buffer with or without PS80 (150 mM NaCl, 10 mM sodium phosphate, pH 6.0)
Protocol: Differential Scanning calorimetry measures the energetics of protein unfolding during a temperature ramp. Peaks represent apparent melting temperatures and the area under the peaks represent the enthalpy of the thermal transition. Data were collected for duplicate samples over 20° C. to 90° C. range using temperature ramp rate of 60° C./hour.

[5] = biological target: T1, recombinant Interleukin 3 Receptor (rhIL3-R) (Homo sapiens, UniProt P26951); assay: CD123 binding ELISA (relative potency); details: Relative Potency vs DART-A reference standard, 1250 ng/mL dosing solution, Stabilizer 2
T1 construct: The soluble IL3R was coated on the surface of an ELISA plate
T1 sequence (P26951 19-305 limits assumed): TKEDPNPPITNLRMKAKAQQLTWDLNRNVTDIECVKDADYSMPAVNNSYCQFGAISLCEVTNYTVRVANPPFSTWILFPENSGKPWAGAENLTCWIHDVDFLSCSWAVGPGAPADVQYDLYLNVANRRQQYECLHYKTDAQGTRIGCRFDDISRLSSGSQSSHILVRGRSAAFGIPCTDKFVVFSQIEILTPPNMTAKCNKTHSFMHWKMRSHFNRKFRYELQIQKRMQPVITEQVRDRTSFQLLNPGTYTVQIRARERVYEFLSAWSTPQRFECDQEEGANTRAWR
Source text: The soluble IL3R was coated on the surface of an ELISA plate. […] Quantification of bound probe antibody was achieved by addition of a colorimetric AP substrate (AP-Yellow 1 Component Substrate). Oxidation of AP-Yellow by AP yields a colored product that can be read at 405±10 nm. The assay was quantified by the intensity of color, measured using a spectrophotometer set to an optimal wavelength of 405±10 nm. Data were fitted to a four-parameter model with the following variable constraints: the maximum, minimum and slope of each dose response curve is set to be shared between all dose response curves on the plate; the EC50 was determined independently for each curve.

[6] = system: CD123+ cells; assay: DART-A infusion in cynomolgus monkeys; format: in vivo
Source text: Upregulation of granzyme B and perforin levels in both CD8 and CD4 T cells was observed.
A decrease in circulating T cells also occurred, but recovered to baseline before the subsequent infusion in monkeys on the 4-day dose schedule, consistent with DART-A-mediated mobilization.

[7] = system: U937 cells; assay: Activity against CD123-negative targets; format: cell-based
[8] = system: Kasumi-3; assay: Redirected killing of target cell line; format: cell-based, human
[9] = system: A498; assay: Redirected killing of target cell line; format: cell-based; details: A498 (CD123 negative)
[10] = system: RS4-11; assay: Redirected killing of target cell line; format: cell-based
[11] = system: TF-1; assay: Redirected killing of target cell line; format: cell-based
[12] = Post Infusion (Infusion Time = 96 Hrs)
[13] = Post Storage (Time = 72 Hrs), room temperature

B1: DART-A: sequence-optimized CD123×CD3 bispecific diabody; chains SEQ ID NO:42 and SEQ ID NO:44 covalently bonded by a disulfide bond (protein)
chain 1: QAVVTQEPSLTVSPGGTVTLTCRSSTGAVTTSNYANWVQQKPGQAPRGLIGGTNKRAPWTPARFSGSLLGGKAALTITGAQAEDEADYYCALWYSNLWVFGGGTKLTVLGGGGSGGGGEVQLVQSGAELKKPGASVKVSCKASGYTFTDYYMKWVRQAPGQGLEWIGDIIPSNGATFYNQKFKGRVTITVDKSTSTAYMELSSLRSEDTAVYYCARSHLLRASWFAYWGQGTLVTVSSGGCGGGEVAALEKEVAALEKEVAALEKEVAALEK
chain 2: DFVMTQSPDSLAVSLGERVTMSCKSSQSLLNSGNQKNYLTWYQQKPGQPPKLLIYWASTRESGVPDRFSGSGSGTDFTLTISSLQAEDVAVYYCQNDYSYPYTFGQGTKLEIKGGGSGGGGEVQLVESGGGLVQPGGSLRLSCAASGFTFSTYAMNWVRQAPGKGLEWVGRIRSKYNNYATYYADSVKDRFTISRDDSKNSLYLQMNSLKTEDTAVYYCVRHGNFGNSYVSWFAYWGQGTLVTVSSGGCGGGKVAALKEKVAALKEKVAALKEKVAALKE
modifications: interchain disulfide bond; First Polypeptide Chain of DART-A; Second Polypeptide Chain of DART-A
In the case of B1, the “charge heterogeneity by cIEF” value ([1]; 0.1 mg/mL in Stabilizer 2 dosing solution, 72-hour RT storage and administration) is reported as “minor changes within the variability of the analytical method”, the “cIEF % AV (acidic variants)” value [1, 12] is reported as 31.4% and the “cIEF % BV (basic variants)” value [1, 12] is reported as 3.4%. For the same molecule, the “cIEF % Main Peak” value [1, 12] was 65.2%, the “cIEF % AV (acidic variants)” value [1, 13] was 29.1% and the “cIEF % BV (basic variants)” value [1, 13] was 3.9%. For the same molecule, the “cIEF % Main Peak” value [1, 13] was 67.0%, the “cIEF % AV (acidic variants)” value ([1]; T = 0 Hrs) was 28.3% and the “cIEF % BV (basic variants)” value ([1]; T = 0 Hrs) was 4.4%. For the same molecule, the “cIEF % Main Peak” value ([1]; T = 0 Hrs) was 67.3%, the “Max % Killing” value [2] was 43% and the pH ([3]; 10 ng/mL dosing solution, Post Infusion (Infusion Time = 48 Hrs)) was 8.1. It also gave a pH ([3]; 10 ng/mL dosing solution, Post Storage (T = 72 Hrs), room temperature) of 8.1, a pH ([3]; 10 ng/mL dosing solution, T = 0) of 8.1 and a pH ([3]; 20 ng/mL dosing solution, Post Infusion (Infusion Time = 96 Hrs)) of 7.9. For the same molecule, the pH ([3]; 20 ng/mL dosing solution, Post Storage (T =72 Hrs), room temperature) was 8.1, the pH ([3]; 20 ng/mL dosing solution, T = 0) was 8.1 and the pH ([3]; 1250 ng/mL dosing solution, Post Infusion (Infusion Time = 48 Hrs)) was 8.0. The pH ([3]; 1250 ng/mL dosing solution, Post Storage (T = 72 Hrs), room temperature) was 8.0, the pH ([3]; 1250 ng/mL dosing solution, T = 0) was 8.0 and the “changes in pH, visual appearance and osmolality post-infusion vs T=0” value ([3]; Stabilizer 2 dosing solutions) was “no significant changes in pH, visual appearance, and osmolality”. For the same molecule, the “melting temperature (Tm), DSC” value [4] was 64 °C, the “% Potency, CD123 binding” value ([5]; Post Infusion (Infusion Time = 48 Hrs)) was 123% and the “% Potency, CD123 binding” value ([5]; Post Storage (T = 72 Hrs), room temperature) was 140%. The “% Potency, CD123 binding” value ([5]; T = 0) was 146%, the “levels of cytokines interferon-gamma, TNF-alpha, IL-6, IL-5, IL-4 and IL-2” value ([6]; DART-A-treated animals) was “No elevation” and the “pDC depletion after infusion” value ([6]; as little as 10 ng/kg DART-A) was “depleted as early as 4 days post infusion”. For the same molecule, the “circulating CD123+ cells” value ([6]; infused 4 or 7 days a week, weekly escalating doses) was “depletion of circulating CD123+ cells 72 h after treatment initiation”, the Toxicity ([6]; infused 4 or 7 days a week, weekly escalating doses, 4 weeks) was “limited to a minimal transient release of cytokines” and the “activity against CD123-negative targets” value [7] was “No activity”. For the same molecule, the “Max % Killing” value [8] was 94%, the “Max % Killing” value [9] was “No activity” and the “EC50, redirected killing” value ([9]; E:T = 10:1) was “No activity”. The “Max % Killing” value [10] was 60% and the “Max % Killing” value [11] was 46%.
